Results on one molecule are retold here after patent publication US20140227283A1 (INSERM INSTITUT NATIONAL DE LA SANTE ET DE LA RECHERCHE …, published 2014).

Assay [1] addresses T1, human Axl on the surface of cells (human, UniProt P30530 26-894).
T1 construct: whole, on cells; Endogenous Axl of the cell lines; also called cell surface Axl; Axl receptor
T1 sequence (looked up): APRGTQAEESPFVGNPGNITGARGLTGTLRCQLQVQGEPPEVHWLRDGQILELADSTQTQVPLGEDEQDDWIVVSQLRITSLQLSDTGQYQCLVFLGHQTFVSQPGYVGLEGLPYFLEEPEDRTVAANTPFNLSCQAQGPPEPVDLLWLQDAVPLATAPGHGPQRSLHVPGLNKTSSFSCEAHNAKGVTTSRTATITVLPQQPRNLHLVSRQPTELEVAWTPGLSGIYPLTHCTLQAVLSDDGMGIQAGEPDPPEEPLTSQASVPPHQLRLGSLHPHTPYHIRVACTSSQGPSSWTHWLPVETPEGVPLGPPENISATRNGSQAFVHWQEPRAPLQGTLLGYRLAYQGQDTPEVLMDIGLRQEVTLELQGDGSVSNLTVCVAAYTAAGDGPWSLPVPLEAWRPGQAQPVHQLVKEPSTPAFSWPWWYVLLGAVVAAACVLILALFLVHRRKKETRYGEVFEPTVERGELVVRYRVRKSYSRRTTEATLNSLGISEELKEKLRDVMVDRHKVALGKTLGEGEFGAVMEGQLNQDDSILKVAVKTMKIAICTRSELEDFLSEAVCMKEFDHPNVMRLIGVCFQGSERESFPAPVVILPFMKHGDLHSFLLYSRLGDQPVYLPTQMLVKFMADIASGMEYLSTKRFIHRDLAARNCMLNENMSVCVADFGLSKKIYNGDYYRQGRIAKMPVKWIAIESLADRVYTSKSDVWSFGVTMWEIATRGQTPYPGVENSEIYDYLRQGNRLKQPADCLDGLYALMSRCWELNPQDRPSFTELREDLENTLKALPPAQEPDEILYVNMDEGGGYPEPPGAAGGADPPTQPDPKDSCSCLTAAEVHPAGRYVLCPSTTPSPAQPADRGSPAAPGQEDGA
In words: flow cytometry on A549 cells. The source says: FIG. 2: Flow cytometry analysis of cell surface Axl in A549.

In assay [2] the target is T2, mouse Axl-Fc (mouse, UniProt Q00993 20-443, limits assumed).
T2 construct: also called m-Axl; not shown: Fc part
T2 sequence (looked up): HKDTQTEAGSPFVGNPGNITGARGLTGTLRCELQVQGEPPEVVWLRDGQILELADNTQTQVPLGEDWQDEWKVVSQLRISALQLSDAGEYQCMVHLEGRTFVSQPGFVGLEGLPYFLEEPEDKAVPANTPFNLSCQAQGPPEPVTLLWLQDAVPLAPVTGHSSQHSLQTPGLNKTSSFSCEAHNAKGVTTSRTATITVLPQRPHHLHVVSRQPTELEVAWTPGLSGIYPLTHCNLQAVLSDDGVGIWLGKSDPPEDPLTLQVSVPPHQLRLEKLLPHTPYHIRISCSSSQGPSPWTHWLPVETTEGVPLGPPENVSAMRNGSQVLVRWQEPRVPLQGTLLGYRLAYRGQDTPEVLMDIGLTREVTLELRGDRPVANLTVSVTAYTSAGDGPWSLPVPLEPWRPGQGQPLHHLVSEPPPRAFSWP
Kind of assay: ELISA on coated Fc fusion proteins. As to the method: (§1) FIG. 1: ELISA experiments to investigate the affinity and the specificity of mouse monoclonal antibodies against hAxl. […] After washing, HRP-conjugated anti-mouse IgG was added.
Background: In an ELISA, binding on a coated surface is turned into a signal by an enzyme label.

In assay [3] the target is T3, human Mer-Fc (human, UniProt Q12866 26-499, limits assumed).
T3 construct: also called h-Mer; not shown: Fc part
T3 sequence (looked up): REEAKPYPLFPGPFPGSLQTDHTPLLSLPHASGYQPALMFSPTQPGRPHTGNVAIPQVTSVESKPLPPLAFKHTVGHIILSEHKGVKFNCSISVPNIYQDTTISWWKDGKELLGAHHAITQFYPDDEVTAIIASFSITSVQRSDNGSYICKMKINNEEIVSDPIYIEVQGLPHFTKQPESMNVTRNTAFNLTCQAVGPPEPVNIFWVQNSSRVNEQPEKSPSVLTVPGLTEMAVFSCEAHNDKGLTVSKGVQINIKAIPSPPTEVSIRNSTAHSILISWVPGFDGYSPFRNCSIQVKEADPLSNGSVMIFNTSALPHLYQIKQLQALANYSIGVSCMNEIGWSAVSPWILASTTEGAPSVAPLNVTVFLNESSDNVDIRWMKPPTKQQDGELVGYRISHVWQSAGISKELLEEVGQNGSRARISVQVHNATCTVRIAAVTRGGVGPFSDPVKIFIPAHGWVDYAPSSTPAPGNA
In words: ELISA on coated Fc fusion proteins. As to the method:
as §1

The target in assay [4] is T4, Tyro-3-Fc (h-Tyro-3) (human, UniProt Q06418 41-428, limits assumed).
T4 construct: also called human Tyro-3-Fc; not shown: Fc part
T4 sequence (looked up): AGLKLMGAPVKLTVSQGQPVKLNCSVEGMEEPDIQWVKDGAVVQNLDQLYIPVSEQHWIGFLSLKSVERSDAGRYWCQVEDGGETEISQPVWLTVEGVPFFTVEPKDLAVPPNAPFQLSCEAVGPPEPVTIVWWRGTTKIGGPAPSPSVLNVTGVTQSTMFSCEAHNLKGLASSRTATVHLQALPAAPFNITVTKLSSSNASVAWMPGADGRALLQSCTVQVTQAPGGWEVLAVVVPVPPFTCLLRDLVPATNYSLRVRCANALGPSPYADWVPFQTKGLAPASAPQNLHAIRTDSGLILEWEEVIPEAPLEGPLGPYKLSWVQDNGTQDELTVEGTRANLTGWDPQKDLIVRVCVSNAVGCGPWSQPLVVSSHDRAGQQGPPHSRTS
In words: ELISA on coated Fc fusion proteins. As to the method: as §1

The target in assay [5] is human Axl extracellular domain fused to human Fc domain (hAxl-hFc protein; R&D system) (human) (UniProt P30530). Kind of assay: SPR (BIAcore), hAxl-hFc on a CM5 chip; 3E3-E8 (666 nM) injected first, before Gas6.
Assay [6] has the same target. Kind of assay: SPR (BIAcore-3000), hAxl-hFc amine-coupled on a CM5 chip, mAb injected at 2 to 133 nM, 25° C., one-to-one Langmuir model.
The target is the same in assay [7]. Kind of assay: SPR (BIAcore), hAxl-hFc on a CM5 chip; 3E3-E8 (666 nM) injected second, after Gas6 (625 nM), without removing Gas6.

B1: murine anti-Axl monoclonal antibody 3E3E8 (antibody, V domains shown)
VH: QVQLKESGPGLVAPSQSLSITCSVSGFSLTNYAVHWVRQPPGKGLEWLGVIWAGGSTNYNSALMSRLRISKDNSKSQVFFKMNSLQTDDTAMYYCARYYGSSLYPMDYWGQGTSVTVSS
VL: DIVMTQAAPSVPVTPGESVSISCRSSKSLLHSNGNTYLYWFLQRPGQSPQLLIYRMSNLASGVPDRFSGSGSGTVFTLRISGVEAEDVGVYYCMQHLEYPWTFGGGTELEIK
notes: also called mAb 3E3-E8; mAb 3E3E8
Broadly, the Kd is a measure of binding affinity in units of concentration. As for B1, the binding result in assay [1] is on record as “binds”; in assay [2] it was “no binding”; in assay [3], “no binding”; in assay [4] it was “no binding”. Moreover, the Response (RU) is 2500 RU in assay [5] and 2420 RU in assay [7]. The dissociation constant Kd in assay [6] was determined as 1.6 nM.
